Experimental data: patent publication US11921118B2, “Methods for proteome labeling” (The Board of Trustees of the Leland Stanford Junior …, priority 2018, dated 2024)

B1: ScTyrY43G: yeast tyrosyl-tRNA synthetase with Y43G substitution, charges AzY onto tRNA-Tyr; SEQ ID NO:4 (protein)
chain: MSSAATVDPNEAFGLITKNLQEVLNPQIIKDVLEVQKRHLKLGWGTAPTGRPHCGYFVPMTKLADFLKAGCEVTVLLADLHAFLDNMKAPLEVVNYRAKYYELTIKAILRSINVPIEKLKFVVGSSYQLTPDYTMDIFRLSNIVSQNDAKRAGADVVKQVANPLLSGLIYPLMQALDEQFLDVDCQFGGVDQRKIFVLAEENLPSLGYKKRAHLMNPMVPGLAQGGKMSASDPNSKIDLLEEPKQVKKKINSAFCSPGNVEENGLLSFVQYVIAPIQELKFGTNHFEFFIDRPEKFGGPITYKSFEEMKLAFKEEKLSPPDLKIGVADAINELLEPIRQEFADNKEFQEASEKGYPVATPQKSKKAKKPKNKGTKYPGATKTNEIATKLEETKL
B2: MmPheT413G: mouse phenylalanyl-tRNA synthetase with T413G substitution, charges AzF onto tRNA-Phe; SEQ ID NO:5 (protein)
chain: MADNPVLELLLRRLEVADGGLDSAELATQLGVEHQAVVGAVKSLQALGEVIEAELRSTKCWELTTEGEEIAREGSHEARVFRSIPLEGLVQSELMHLPSGKVGFSKAMSNKWIRVDKSAADGPRVFRVVDSIEDEVQKRLQLVQAGQAEKLAEKERNELRKRKLLTEVILKTYWVSKGKAFSTSVSKQEAELSPEMISSGSWRDRPFKPYNFSARGVLPDSGHLHPLLKVRSQFRQIFLEMGFTEMPTDNFIESSFWNFDALFQPQQHPARDQHDTFFLRDPAEALQLPMGYVQRVKRTHSQGGYGSQGYKYTWKLEEARKNLLRTHTTAASARALYQLAQKKPFTPAKYFSIDRVFRNETLDATHLAEFHQIEGVIADHGLTLGHLMGVLREFFTKLGITQLRFKPAYNPYGEPSMEVFSYHQGLKKWVEVGNSGVFRPEMLLPMGLPENVSVIAWGLSLERPTMIKYGINNIRELVGHKVNLQMVYDSPVCRLDIEPRSSKTQEAA
B3: HsPheT413G: human phenylalanyl-tRNA synthetase with T413G substitution; SEQ ID NO:6 (protein)
chain: MADGQVAELLLRRLEASDGGLDSAELAAELGMEHQAVVGAVKSLQALGEVIEAELRSTKHWELTAEGEEIAREGSHEARVFRSIPPEGLAQSELMRLPSGKVGFSKAMSNKWIRVDKSAADGPRVFRVVDSMEDEVQRRLQLVRGGQAEKLGEKERSELRKRKLLAEVTLKTYWVSKGSAFSTSISKQETELSPEMISSGSWRDRPFKPYNFLAHGVLPDSGHLHPLLKVRSQFRQIFLEMGFTEMPTDNFIESSFWNFDALFQPQQHPARDQHDTFFLRDPAEALQLPMDYVQRVKRTHSQGGYGSQGYKYNWKLDEARKNLLRTHTTSASARALYRLAQKKPFTPVKYFSIDRVFRNETLDATHLAEFHQIEGVVADHGLTLGHLMGVLREFFTKLGITQLRFKPAYNPYGEPSMEVFSYHQGLKKWVEVGNSGVFRPEMLLPMGLPENVSVIAWGLSLERPTMIKYGINNIRELVGHKVNLQMVYDSPLCRLDAEPRPPPTQEAA

Tests used:
HEK293T cells = experiment: Selectivity of ncAA activation over canonical amino acid, in-gel AF647 fluorescence fitted to Michaelis-Menten kinetics; type: cell-based, human; conditions: equimolar concentrations of the two amino acids; serum-containing media, 24 h
Description: FIGS. 2A-2E: Identification and characterization of TyrRS and PheRS variants for bioorthogonal labeling of mammalian proteomes with AzY and AzF. FIG. 2A: A single substitution (Y43G) in the amino acid binding site of yeast tyrosyl-tRNA synthetase (ScTyrY43G) enables charging of the azido tyrosine analog AzY onto tRNA^TYr before incorporation into nascent proteins of host cells. FIG. 2B: A single substitution (T413G) in the amino binding site of human or mouse phenylalanyl-tRNA synthetase (MmPheT413G) enables charging of the azido phenylalanine analog AzF onto tRNA^Phe. FIG. 2C: In-gel fluorescence image of Alexa Fluor 647 labeling corresponding to AzY or AzF incorporation into mammalian cell proteomes. ‘WT’: no exogenous amino acid added to media. ‘CP1 switch’: an E. coli TyrRS with the human CP1 peptide engrafted. ‘Mj TyRS’: TyrRS from the species M. jannaschii, without its accompanying tRNA. FIG. 2D: High selectivity of ScTyrY43G for AzY over Tyr. In-gel Alexa Fluor 647 fluorescence and coomassie blue staining of whole gel lanes were quantified to assess the degree of proteome labeling normalized to total protein content. […]
Copper-free reaction of DIBO-Alexa Fluor 647 with click-labeled cell lysates for in-gel fluorescence. […] Protein concentrations were measured with a BCA Protein Assay Kit (Pierce) to ensure equal loading across gel wells (˜23 μg). […]

CHO = experiment: Proteome labeling after transient transfection and AzY/AzF incubation, DIBO-Alexa Fluor 647 in-gel fluorescence; type: cell-based, hamster; conditions: transient transfection, 2 mM AzY or AzF
Method: (§1) Cells were lysed, pre-treated with iodoacetamide (IAM) to block background thiol-yne additions (25), and treated with dibenzocyclooctyne (DIBO)-Alexa Fluor 647 dye for copper-free, strain-promoted azide-alkyne cycloaddition.
(§2) Cell transfection, click amino acid labeling, and selection of stably transfected B16-F10 cells. Unless otherwise noted, cells were transiently transfected with Lipofectamine 3000 (Invitrogen) 24 hours prior to 4-Azido-L-phenylalanine (AzF, Chem-Implex) or 3-Azido-L-tyrosine (AzY, Watanabe Chemical Industries) labeling. For initial assessment of labeling across mammalian cell lines, transfected cells were incubated with 2 mM of AzF, AzY, tyrosine, or phenylalanine for 30 hours in 12-well plates prior to lysis. To characterize enzyme selectivity and rate of substrate activation, transfected HEK293T cells were incubated with varying amounts of endogenous and non-canonical amino acids for 24 hours in 12-well plates prior to lysis. For affinity enrichment prior to shotgun mass spectrometry, transfected HEK293T cells were incubated with 125 μM of endogenous and non-canonical amino acids for 24 hours in 10 cm dishes prior to lysis. B16-F10 cells were transfected with mutant synthetases in the Piggybac vector PB513B-1 for 72 hours prior to puromycin selection at 10 μg/ml for 10 days.
(§3) Copper-free reaction of DIBO-Alexa Fluor 647 with click-labeled cell lysates for in-gel fluorescence. After washing in PBS twice, cells were lysed 1% SDS in PBS with EDTA-free protease inhibitor (Roche). […] Protein concentrations were measured with a BCA Protein Assay Kit (Pierce) to ensure equal loading across gel wells (˜23 μg). […] Colloidally stained gels were imaged in the 800-nm channel of an Odyssey CLx (LI-COR), where no bleed-through of the Alexa Fluor 647 signal was detected. Quantification of signal intensities of labeled proteomes from each gel lane were analyzed in ImageJ as before, but with slight modifications (36). […] Instead, the mean and standard deviations were calculated from biological triplicates of whole gel lanes, less the dye front.

HEK293T = experiment: as above; type: cell-based, human; conditions: transient transfection, 2 mM AzY or AzF
Method: as §1, §2, §3

B16-F10 = experiment: as above; type: cell-based, mouse; conditions: transient transfection, 2 mM AzY or AzF
Method: as §1, §2, §3

Row | Molecule | activation of AzY faster than Tyr (HEK293T cells) [fold] | proteome labeling (CHO) | proteome labeling (HEK293T) | proteome labeling (B16-F10) | activation of AzF faster than Phe (HEK293T cells)
1 | B1 | ~250 | strong labeling | strong labeling | strong labeling | 
2 | B2 |  | strong labeling | strong labeling | strong labeling | over 11 fold
3 | B3 |  | strong labeling | strong labeling | strong labeling | 
